From the nanobody polyreactivity screen of Harvey et al. (2022)

Test: yeast display, Sf9 membrane polyspecificity reagent, FACS + sequencing; frameworks hold sequencing errors
Outline: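 A nanobody's polyreactivity label depends on the gate it was sorted from. Yeast display cells were stained with 10% biotinylated, detergent-solubilized Sf9 membrane reagent for 1 hour at 4 °C, enriched on streptavidin microbeads and sorted by FACS. The low and high (top ~1%) gates were set on anti-HA fluorescence for expression and streptavidin fluorescence for reagent binding.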

Row | Sequence | polyreactivity (PSR sort gate)
1 | QVHLVESGGGLVQAGGSLPLSCAATGRTFVYYAMGWYIQAPGKERELVAAITWTGGSTYYADSVKGRFTISRDTAKNTVYLHMNSMKPEDTAVYYFKAAVFRYRNEYDYWGQGTQVTVSS | low polyreactivity
2 | QVHLVESGGGLVQAGGSLRFSCAASGSTFDDYAMGWYRQAPGKERELVAAISRSDGSTSYADSVKGRFTISRDNAKNTVYLQMNSLKPEDTAVYYCAADPVFKDDLWPVRVRVDYWGQGTQVTVSS | low polyreactivity
3 | QVHLVESGGGLVQAGGSLRISCAASGRIFRRYAMGWYRQAPGKERELVAAITRSGGSTYYADSVKGRFTISRDNAKNTVYLQMNSLKPEDTAVYYCNAPSSLGTDYDYWGQGTQVTVSS | high polyreactivity
4 | QVHLVESGGGLVQAGGSLRISCAASGSIFFPYAMGGYRQAPGKERELVAAISYSGTSTYYAASVKGRFTISRDNAKNTVYLQMNSLKPVDTAVYYCAAYSRYYASYDYWGQGTQVTVSS | high polyreactivity
5 | QVHLVESGGGLVQAGGSLRLCCAASGRIFDHNTKGWYRQAPGKEMEFVAAITVSAGTTYYADSVKGRFTISSDNAKNTVYLQMNSLKPEDTAVYYCAAYYVYSYWDWGDYWGQGTQVTVSS | low polyreactivity
6 | QVHLVESGGGLVQAGGSLRLICAASGGTLWVNTMGWYRQAPGKERELVAAISRRGGSTYYADSVKGRFTISRDNAKNTVYLQMNSLKPEDTAVYYCAKGYSSHYWWAYDSWGQGTQVTVSS | high polyreactivity
7 | QVHLVESGGGLVQAGGSLRLICAASVFNLDWYVMGWNRQAPGKERQLVAAISSSGGRTYNADSVKGRFTISRDKAKNTVYLQMNSLKPEDTAVYYCAARNKYGGYPYGYDYWGQGTQVTVSS | high polyreactivity
8 | QVHLVESGGGLVQAGGSLRLRCAASGIIYVRYAMGWYRHAPGKERELVAAISWSGGSTYYADSVKGRFTISRDNAKNTVYLQMNSLKPEDTAVYYCAADSHRTRGYARYFYWGQGTQVTVSS | high polyreactivity
9 | QVHLVESGGGLVQAGGSLRLSCAASARTFTQNAMVWYRQAPGKERELVAAITRSGGSTYYADSVKGRFTISRDYAKNTVYLQMNSLKPEDTAVYYFIKYTHYYDYDYWGQGTQVTVSS | high polyreactivity
10 | QVHLVESGGGLVQAGGSLRLSCAASASIFGSNAMGWYRQAPGKDRELVAAITWSDGSTYYADSVKGRFTISRDNAKNTVYLQMNSLKPDDTAVYYCSSDYGYSWYDYWGQGTQVTVSS | low polyreactivity
11 | QVHLVESGGGLVQAGGSLRLSCAASGFIFPNNAMGWYRQAPGKERELVARISYGGGDTHYADSVKGRFTISRDNAKNTVYLQMNSLKPEDTAVSYCAVKDGQDDYWGQGTQVTVSS | low polyreactivity
12 | QVHLVESGGGLVQAGGSLRLSCAASGFIFWGYAMGWYRPAPVHERELVAAISSDGDTYYADSVKGRFTISLDNAKNTVYLQMNCRKPEESAVYYCNADLYGGGDNSVISGLNGEYEYWGQGTQVTVSS | low polyreactivity
13 | QVHLVESGGGLVQAGGSLRLSCAASGFLFDVYAMGWYRQAPGKERELVAAISRSGGSTYYADSVKGRFTISRDNAKNTVYLQMNSLKPEDTAVYYCATDLLNNVDYDYWGQGTQVTVSS | low polyreactivity
14 | QVHLVESGGGLVQAGGSLRLSCAASGFPFADNAMGWNRQAPGKERELVAAISRRGGSTYYADSVKGRFTISRDNAKNTVYLQMNSLKAEDTAVYYCAALGNRYPYYYYYGSYYPVEYWGQGTQVTVSS | high polyreactivity
15 | QVHLVESGGGLVQAGGSLRLSCAASGFTFIRYAMGWYRQAPGKEREFVAAISWRVGITYYADSVKGRFTISRDNAKNTVYLQMNSLKPEDTAVYYCARDYRNPPFAYEYWGQGTQVTVSS | low polyreactivity
16 | QVHLVESGGGLVQAGGSLRLSCAASGFTFLVYAMRWYRKAPGKEREFVAAMNWSGDRTYYADSVKGLFTISREYAKNTVYLQMNSVKTEDTAVYYCAAVDYVYPQAYGYWGQGTQVTVSS | low polyreactivity
17 | QVHLVESGGGLVQAGGSLRLSCAASGFTFRRYAMGWDRQAPGKERELVASISSGGSTNYADSVKGRCTISRDNAKNTVYLQMNSLIPEDTAVYYCAVSYRSFRYYWERYYSWGQGTQVTVSS | high polyreactivity
18 | QVHLVESGGGLVQAGGSLRLSCAASGFTIYTYAMGGYRQAPGKERELVAAISSSGGSTSYADSVKGRFTISRDNAKITDYLQMNSLKPDDTALYYCNRGWRQQLGYWGQGTQVNVSS | high polyreactivity
19 | QVHLVESGGGLVQAGGSLRLSCAASGFTLYYYMGWYRQAPGKERELVAGISNSGSTSYADSVKGRFTISRDNAKNTVYLQMNSLKPEDTAVYYCNAYYPAWYLDRYYYWGQGTQVTVSS | high polyreactivity
20 | QVHLVESGGGLVQAGGSLRLSCAASGGIFPGYAMGRYRKAPGKERELVAAITKRGGRTYYADSVKGRFTISRDNAKNTVYLQMNSLKPEDTAVYYCAADYYAAYHLPDQDYDYWGQGTQVTVSS | high polyreactivity
21 | QVHLVESGGGLVQAGGSLRLSCAASGGIFYAYDMGWYRQAPGKERELVAAITWTGGTTYYADSVKGRFTISRDNAKKTVYLLMNSLKPEDTAVYYCAADDGTNSTARDKDDYYYWGQGTEVTVSS | low polyreactivity
22 | QVHLVESGGGLVQAGGSLRLSCAASGGTDVGYAMGWYRQAPGKEMELDATITRRGGNTYYADSVKGRFTISRDNAKNTVYLQKNSLKPEDTAVYYCAARKKGSRVGYDYWGQGTQVTVSS | high polyreactivity

Row | Sequence | polyreactivity (PSR sort gate)
23 | QVHLVESGGGLVQAGGSLRLSCAASGIIFLVYAMGWYRQAPGKEWELVAGISGSATSTNYADSVKGRFTISRDNAKNTVYLQMNSLKPEDTAVYYCAASYYGYYVPDNSKYGYWGQGTQVTVSS | low polyreactivity
24 | QVHLVESGGGLVQAGGSLRLSCAASGIIISSYAMGWYRQAPGKERELVAAITWGGTRTNYADSVKGRFTISRDNAKNTVYLQMNSLKPEDTAVYYCAADKYLYGRLTRNFHYYYWGQGTQVTVSS | low polyreactivity
25 | QVHLVESGGGLVQAGGSLRLSCAASGIIVYPYAMGWYRQAPGKESELVATISYRGGSTYYADSVKGRFTISRDNAKNTVYLQMNSLKPEETAVYYCAAERGYPKFGYCGQGTQVTVSS | low polyreactivity
26 | QVHLVESGGGLVQAGGSLRLSCAASGITFISYAMGWYRQAPGKEREFVAAITRRGGSTYYADSVKGRFTISRDNAKNTVYLQMNSLKPEDTAVYYCAARVLSLYTYYYWGQGTQVTVSS | high polyreactivity
27 | QVHLVESGGGLVQAGGSLRLSCAASGITFQRYAMGWYREAPGKERELVASISTNGGTTYYADSVKGRFTISRHNAKNTVYLQMNSLKPEDTAVYYCNAESGYVYYIRYNYWGQGTQVTVSS | high polyreactivity
28 | QVHLVESGGGLVQAGGSLRLSCAASGITFRRYGMGWYRQAPGKERELVATITSSVGSRTYYADSVKGRFTISRDNAKNTVYLQMNSLKPEDTAVYYCAADHRVYDYEYWGQGTQVTVSS | low polyreactivity
29 | QVHLVESGGGLVQAGGSLRLSCAASGITFYRNAMGWYRQPRGKEMELVAAITWNGGRTYYADSVKGRFTISRDNAKNTVYLQMNSLKPEDTAVYYCAADSGSRNLASYRYYSWGQGTQVTVSS | low polyreactivity
30 | QVHLVESGGGLVQAGGSLRLSCAASGLIFVDNAMGWYRQAPGKERELVAAIDSGGSTNYADSVKGRFTISRDNEKNTVYLQMNSLKTEDTAVYYCAADWIYAPWYYQECVEYYYWGQGTQVTVSS | low polyreactivity
31 | QVHLVESGGGLVQAGGSLRLSCAASGLTFYSNAMRWYRQAPGKERELVARISTGGSTYADSVKGRFTISRDNAKNTVYLQMNSLKPEDTGVFYCAKLPPRGIDDEYWGQATQVTVSS | low polyreactivity
32 | QVHLVESGGGLVQAGGSLRLSCAASGLTFYWYTMGWYRQAPGKERELVAAITSGGSTSYADSVKGRFTISRDNAKNTVYLQMNSLKPEDTAVYYCAADGQVSGYDYWGQGTQVTVSS | high polyreactivity
33 | QVHLVESGGGLVQAGGSLRLSCAASGNIFGVYAMGWYRQAPGKERELVAAISDSTYYADSVKGRFTISRDNAKNTVYLQMTSLKPEDTAVYYCAAAVLGRYSAGDGYWGQGPQVTVSS | low polyreactivity
34 | QVHLVESGGGLVQAGGSLRLSCAASGRIFAWNSMGWYRQAPGKERELVAAITYNGGSTYYADSVKGRFTISRDNAKNTVYLQMNSLKPEDTAVYYCNKVTRSPAQGYGYWGQGTQVTVSS | high polyreactivity
35 | QVHLVESGGGLVQAGGSLRLSCAASGRIFGPYTMGWYIQAPGKEREFVAAITRRGGSTYYADSVKGRFTISRDNAKNTVYLQMNSLKPEDTAVYSCAAGGQKRSLGYSWGQGTQVTVSS | low polyreactivity
36 | QVHLVESGGGLVQAGGSLRLSCAASGRIFRPYAMGWYRQAPGKERELVAGLTSSGGSTYYADSVKGRFTISRDNAKNTVYLHMNSRKPEDTALYYCAAGPDYGWRRYDYWGQGTQVTVSS | low polyreactivity
37 | QVHLVESGGGLVQAGGSLRLSCAASGRIFSRNVMGWYRQAPGKERELVAAISSSGSTYADSVKGRFTISRDNAKNTVYLQMNSLKPEDTAVYYCAAVIYLWGQGTQVTVSS | high polyreactivity
38 | QVHLVESGGGLVQAGGSLRLSCAASGRIFYGYAMGWYRQAPGKEREFVAAITVSAGSTYYADSVKGRFTISRDNAKNTVYLQMNSLKPEDTAVYYCAGENGSKEFDYWGQGTQVTVSS | low polyreactivity
39 | QVHLVESGGGLVQAGGSLRLSCAASGRNFGYNAMGWYRQAPRKEREFVASISSSGGLTYYSDSVKGRFTISRDNAKNTVYLQMNSLKPEDSAFYDCARQGYYLYSKYDYWGQGTQVTVSS | high polyreactivity
40 | QVHLVESGGGLVQAGGSLRLSCAASGRTFGINAMGWYRQAPGKERELDAVISFGDGGTYYADSVKGRFTISRDNAKNTVYLQMKSLKPEDTAVYYCATDYQSTSVWGGHFVINPYDYWGQGTQVTVSS | low polyreactivity
41 | QVHLVESGGGLVQAGGSLRLSCAASGRTFHVYAMGWYRQAPGKEREFVAFISRRGGSTYYADSVKGRFTISRDNAKNTVYLQMNSLKPEDTAVYYCNAKYPSNYVVQDDYWGQGTQVTVSS | high polyreactivity
42 | QVHLVESGGGLVQAGGSLRLSCAASGRTFIENAMGWYRQAPGKERELVAAIFSGGSTYYADSVKGRFTISRDNAKKTVDLQLNSLKPEDTAVYYCDARFARYDWSMYYWGQGTQVTVSS | low polyreactivity
43 | QVHLVESGGGLVQAGGSLRLSCAASGRTFIKYAMGWYIQAPGKERELVAAISVSGGRTYYADSVKGRFTISRDKAKNTVYLQMNSLKPEDTAVYYCNKVRVGSLRGYWGQGTQVTVSS | high polyreactivity
